Literature values, collected in article PMC6126569.
“And” between values parts separate entries of the source, which are not always exact repeats. Identical values can stand only once.

Biological target: Bac7 (Bos taurus) (UniProt P19661)
Assay: SRCD

Chain of Bac7 (Bos taurus) (P19661 131-189): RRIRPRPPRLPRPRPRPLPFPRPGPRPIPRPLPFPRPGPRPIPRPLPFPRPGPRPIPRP
Chain of SbmA (P0AFY6 whole entry): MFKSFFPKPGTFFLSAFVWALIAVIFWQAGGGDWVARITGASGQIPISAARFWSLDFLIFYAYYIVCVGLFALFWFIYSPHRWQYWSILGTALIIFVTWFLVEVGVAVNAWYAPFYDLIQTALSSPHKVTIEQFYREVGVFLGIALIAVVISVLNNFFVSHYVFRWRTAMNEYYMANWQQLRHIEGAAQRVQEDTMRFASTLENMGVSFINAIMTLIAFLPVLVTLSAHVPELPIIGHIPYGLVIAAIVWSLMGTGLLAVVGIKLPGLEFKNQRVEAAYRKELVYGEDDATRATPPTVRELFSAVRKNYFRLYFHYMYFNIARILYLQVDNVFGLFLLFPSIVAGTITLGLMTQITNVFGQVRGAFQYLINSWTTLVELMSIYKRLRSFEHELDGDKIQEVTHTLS

- Kd: 0.26 µM and 0.28 µM
Substance: SbmA (from UniProt P0AFY6)
